B1: Antibody G (45-C1C3) (antibody, V domains shown)
VH: EVQLVESGGGAVQPGRSLRLSCAASGVSFSNIGMHWVRQAPGKGLEWVALISSDGRHTHYADSVKGRFTISRDNSENTLYLQINGLRADDTAVYYCAKGLDTRARYMGKFYTFDYWGQGTLVTVSS
VL: DIQLTQSPSSLSASVGDRVTITCRASQNIGVNLNWYQQRPGKGPKLLVSSTFSLQSGVPSRFSASGAGTNFTLTISSLQPEDYVTYYCQQSYSSPFTFGPGTKVDIK
notes: also called mAb G; Ab G
B2: murine Antibody G (mu-AbG) (antibody, mouse IgG2a, kappa, V domains shown)
VH: B1 VH
VL: DIQLTQSPSSLSASVGDRVTITCRASQNIGVNLNWYQQRPGKGPKLLVSSTFSLQSGVPSRFSASGAGTNFTLTISSLQPEDYVTYYCQQSYSSPFTFGPGTKVDIKR
notes: Variable domains of Antibody G with mouse IgG2a heavy and mouse kappa light constant regions; also called murine mAb G

Key:
[1] = molecular target: T1, P2 peptide (YSMKETTMKIIPFNRLTIG); test: solid phase ELISA, 30 µM P2 peptide coated
T1 peptide: YSMKETTMKIIPFNRLTIG
Procedure: Based on the fibrinogen peptide profiling (FIG. 8), 15mers were selected to carry out individual peptide binding validation using solid phase ELISA. High purity 15mers were synthesized (Genemed) and then each were diluted at 30 μM in 20 mM HEPES buffer, coated in separate wells and dried overnight. Antibody G was incubated on peptide coated wells for 2 hours at 37° C., at a concentration of 25 or 50 μg/mL.

[2] = molecular target: FIBG 331-345 peptide (human) (UniProt P02679); test: solid phase ELISA, 30 µM FIBG331-345 peptide coated
fibrin = molecular target: T2, fibrin (UniProt P02671 36-629; P02675 45-491; P02679 27-437); test: solid phase ELISA, 25 µg/mL IgG-depleted fibrin coated, 12-point 3-fold dilution
T2 construct: also called IgG-depleted fibrin; fibrin networks
T2 sequence (looked up) 1: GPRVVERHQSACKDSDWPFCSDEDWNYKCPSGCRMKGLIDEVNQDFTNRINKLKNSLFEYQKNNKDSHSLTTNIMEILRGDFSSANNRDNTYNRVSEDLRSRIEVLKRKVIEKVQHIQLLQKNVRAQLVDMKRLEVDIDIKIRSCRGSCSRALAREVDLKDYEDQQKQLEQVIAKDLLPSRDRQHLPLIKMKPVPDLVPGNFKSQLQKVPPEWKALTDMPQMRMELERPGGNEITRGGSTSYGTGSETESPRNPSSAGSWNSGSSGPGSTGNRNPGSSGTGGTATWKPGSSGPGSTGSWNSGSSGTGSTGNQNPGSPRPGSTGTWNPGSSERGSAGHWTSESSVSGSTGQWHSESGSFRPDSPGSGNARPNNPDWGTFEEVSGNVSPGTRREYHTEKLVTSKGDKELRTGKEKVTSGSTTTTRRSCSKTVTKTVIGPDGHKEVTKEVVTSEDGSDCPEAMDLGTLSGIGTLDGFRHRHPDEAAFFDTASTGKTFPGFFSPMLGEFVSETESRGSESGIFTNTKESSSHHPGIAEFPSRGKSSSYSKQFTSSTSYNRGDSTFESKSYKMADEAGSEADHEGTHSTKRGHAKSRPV
T2 sequence (looked up) 2: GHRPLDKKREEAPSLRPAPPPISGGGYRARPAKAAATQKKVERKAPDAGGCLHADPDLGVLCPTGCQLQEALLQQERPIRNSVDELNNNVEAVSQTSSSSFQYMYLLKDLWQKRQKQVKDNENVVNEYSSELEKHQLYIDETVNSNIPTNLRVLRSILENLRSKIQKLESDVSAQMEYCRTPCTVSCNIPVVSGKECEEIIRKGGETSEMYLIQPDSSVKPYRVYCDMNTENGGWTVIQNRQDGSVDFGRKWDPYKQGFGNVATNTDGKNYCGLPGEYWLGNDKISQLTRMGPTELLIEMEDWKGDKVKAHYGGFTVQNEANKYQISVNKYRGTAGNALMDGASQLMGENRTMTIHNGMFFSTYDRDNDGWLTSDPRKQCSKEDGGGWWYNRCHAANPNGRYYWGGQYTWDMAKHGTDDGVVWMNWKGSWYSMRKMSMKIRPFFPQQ
T2 sequence (looked up) 3: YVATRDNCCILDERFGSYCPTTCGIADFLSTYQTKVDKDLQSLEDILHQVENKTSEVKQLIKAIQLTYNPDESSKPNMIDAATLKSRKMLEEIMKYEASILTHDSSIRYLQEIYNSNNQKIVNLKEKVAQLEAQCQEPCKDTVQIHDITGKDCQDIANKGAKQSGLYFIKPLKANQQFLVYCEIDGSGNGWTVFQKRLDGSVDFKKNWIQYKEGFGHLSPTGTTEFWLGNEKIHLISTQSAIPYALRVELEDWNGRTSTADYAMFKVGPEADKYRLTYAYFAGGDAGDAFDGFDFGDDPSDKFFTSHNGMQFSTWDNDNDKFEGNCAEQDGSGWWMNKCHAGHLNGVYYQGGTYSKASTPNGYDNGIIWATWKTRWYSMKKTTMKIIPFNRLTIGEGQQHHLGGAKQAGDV
Procedure: (§1) Solid phase ELISA was used to assess whether Antibody G binds to fibrinogen and fibrin separately. Antibody G was incubated for 2 hours at 37° C. on 25 μg/mL IgG-depleted fibrinogen or fibrin in 20 mM HEPES buffer, pH7.2, coated and dried overnight in high protein-binding ELISA plates.
Solid phase ELISA was used to assess murine Antibody G binding to fibrin. Antibody G was incubated for 2 hours at 37° C. on 25 μg/mL IgG-depleted fibrin in 20 mM HEPES buffer, pH7.2, coated and dried overnight in high protein-binding ELISA plates.

fibrinogen = molecular target: T3, fibrinogen (UniProt P02671 20-629; P02675 31-491; P02679 27-437, limits assumed); test: solid phase ELISA, 25 µg/mL IgG-depleted fibrinogen coated, 12-point 3-fold dilution
T3 construct: also called IgG-depleted fibrinogen
T3 sequence (looked up) 1: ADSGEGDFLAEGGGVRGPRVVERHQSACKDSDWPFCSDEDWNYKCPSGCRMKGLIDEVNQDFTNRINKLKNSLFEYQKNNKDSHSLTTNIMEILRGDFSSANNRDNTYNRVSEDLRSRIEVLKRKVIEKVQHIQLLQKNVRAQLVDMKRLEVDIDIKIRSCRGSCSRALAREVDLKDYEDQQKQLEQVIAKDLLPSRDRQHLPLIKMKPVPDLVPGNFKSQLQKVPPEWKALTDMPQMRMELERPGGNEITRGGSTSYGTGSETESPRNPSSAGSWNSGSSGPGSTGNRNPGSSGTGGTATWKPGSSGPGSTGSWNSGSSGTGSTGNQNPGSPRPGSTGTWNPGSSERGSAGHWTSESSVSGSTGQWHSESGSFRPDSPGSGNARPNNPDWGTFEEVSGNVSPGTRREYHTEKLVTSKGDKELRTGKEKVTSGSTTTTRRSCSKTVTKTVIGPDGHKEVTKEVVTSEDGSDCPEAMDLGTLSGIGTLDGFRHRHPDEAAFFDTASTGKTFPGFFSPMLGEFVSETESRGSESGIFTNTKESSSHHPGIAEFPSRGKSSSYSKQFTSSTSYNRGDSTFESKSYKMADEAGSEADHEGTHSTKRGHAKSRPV
T3 sequence (looked up) 2: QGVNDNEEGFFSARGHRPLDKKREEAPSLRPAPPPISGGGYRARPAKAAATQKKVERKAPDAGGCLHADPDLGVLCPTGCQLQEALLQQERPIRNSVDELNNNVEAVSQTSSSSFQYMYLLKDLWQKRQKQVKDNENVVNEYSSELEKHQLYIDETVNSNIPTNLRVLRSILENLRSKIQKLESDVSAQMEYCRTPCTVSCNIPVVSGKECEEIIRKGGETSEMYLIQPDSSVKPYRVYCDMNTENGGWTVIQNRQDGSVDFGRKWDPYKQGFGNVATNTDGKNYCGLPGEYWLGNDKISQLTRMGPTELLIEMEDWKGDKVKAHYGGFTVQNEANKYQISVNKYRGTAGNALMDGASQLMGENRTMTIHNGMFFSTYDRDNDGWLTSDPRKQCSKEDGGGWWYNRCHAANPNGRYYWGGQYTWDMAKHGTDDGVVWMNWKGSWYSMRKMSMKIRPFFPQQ
T3 sequence (looked up) 3: T2 sequence (looked up) 3
Procedure: as §1

Binder	Kd [1] [nM]	Kd [2] [nM]	Kd (fibrin) [nM]	Kd (fibrinogen) [nM]
B1	11800	360	160	660
B2	–	–	40	–
